Results published in article PMC7564285.

Legend:
[1] = molecular target: murine γ-herpesvirus 68 vBCL2 M11, wild type (murine γ-herpesvirus 68) (UniProt P89884); assay: ITC; BH3D peptide titrated into M11 protein (25 injections of 2 μL); 14 °C; 50 mM HEPES pH 7.5, 150 mM NaCl, 2 mM βME; co-dialyzed overnight; independent model
[2] = molecular target: M11 F48A (murine γ-herpesvirus 68) (UniProt P89884); assay: as above
[3] = molecular target: M11 Y56A (murine γ-herpesvirus 68) (UniProt P89884); assay: as above
[4] = molecular target: M11 A63K (murine γ-herpesvirus 68) (UniProt P89884); assay: as above
[5] = molecular target: γHV68 M11 Y97A (murine γ-herpesvirus 68) (UniProt P89884); assay: ITC; Beclin 1 BH3D peptide titrated into M11 protein, 25 injections of 2 μL, 14 °C; 50 mM HEPES pH 7.5, 150 mM NaCl, 2 mM βME; independent model
[6] = molecular target: γHV68 M11 F79A (murine γ-herpesvirus 68) (UniProt P89884); assay: as above
[7] = molecular target: γHV68 M11 M119A (murine γ-herpesvirus 68) (UniProt P89884); assay: as above
[8] = molecular target: γHV68 M11 L128A (murine γ-herpesvirus 68) (UniProt P89884); assay: as above
[9] = molecular target: γHV68 M11 L103A (murine γ-herpesvirus 68) (UniProt P89884); assay: as above

## Beclin 1 BH3D peptide
[1]
  Ka: 1.2e+06 M⁻¹
  Kd: 840 nM
  dH: -12.8 kcal/mol
[2]
  Ka: 158000 M⁻¹
  Kd: 63400 nM
  dH: -8.63 kcal/mol
[3]
  Ka: 300000 M⁻¹
  Kd: 3380 nM
  dH: -9.03 kcal/mol
[4]
  Ka: 160000 M⁻¹
  Kd: 6500 nM
  dH: -9.49 kcal/mol
[5]
  Ka: 920000 M⁻¹
  Kd: 1130 nM
[6]
  Ka: 4.6e+06 M⁻¹
  Kd: 2200 nM
[7]
  Ka: 527000 M⁻¹
  Kd: 1900 nM
[8]
  Ka: 1.12e+06 M⁻¹
  Kd: 900 nM
[9]
  Ka: 417000 M⁻¹
  Kd: 2400 nM
